Reference: patent US20030008820A1

Target: FGFR on smooth muscle cells (SMC) isolated from bovine aorta (bovine)
Experiment: cell-based or functional assay

With “Recombinant human wild-type FGF2 (ligand)” the molar concentration required to achieve half maximal proliferation of SMC ([3H] thymidine incorporation, no chlorate) was 270 pM.
“dFGF2, tandemly-linked dimeric FGF2, as purified with N-terminal His tag and C-terminal T7 tag (ligand)” showed a fold activity in promoting SMC proliferation compared to wild-type FGF2 of 4.5 fold, a molar concentration required to achieve half maximal proliferation of SMC ([3H] thymidine incorporation, no chlorate) of 60 pM and a proliferation of chlorate-treated (HLGAG-depleted) SMC, percent of full proliferation of 80%.
